Changes are numbered by the printed parent chain.
T1: recombinant mouse VEGF164 (mouse, UniProt Q00731-2 27-190)
T1 construct: biotinylated in the mVEGFR2 AlphaScreen; also called rmVEGF164; mVEGF164
T1 sequence (looked up): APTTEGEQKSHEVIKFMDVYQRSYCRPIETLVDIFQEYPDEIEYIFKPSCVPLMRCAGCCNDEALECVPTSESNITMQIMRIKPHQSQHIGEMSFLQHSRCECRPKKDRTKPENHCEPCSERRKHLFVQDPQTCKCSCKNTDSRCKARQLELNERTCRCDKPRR

B1: VEGFBII23B04 (VHH)
VHH: EVQLVESGGGLVQTGDSLRLSCEVSGRTFSSYSMGWFRQAQGKEREFVVAISKGGYKYDSVSLEGRFTISKDNAKNTVYLQINSLKPEDTAVYYCASSRAYGSSRLRLADTYEYWGQGTQVTVSS
notes: also called VEGFBII23B4; VEGFBII23B04 (wt)
B2: VEGFBII038 (VHH)
VHH: B1 VHH with E1D, T14P, D16G, E23A, V24A, Q41P, S60A, K71R, K86R, Q120L
notes: also called VEGFBII0038; VEGFBII00038

Key:
[1] = molecular target: T1, recombinant mouse VEGF164; assay: binding ELISA, coated rmVEGF164
Experimental: Cross-reactivity to mouse VEGF164 is determined using a binding ELISA. […] Wells are blocked with a casein solution (1% in PBS). […] A mouse VEGF164 reactive mAb is included as positive control.

[2] = molecular target: T2, recombinant human VEGF165 (human, UniProt P15692-4 27-191); assay: kd1; SPR Biacore T100, hVEGF165 on chip, Two State Reaction model
T2 construct: also called hVEGF165; rhVEGF165
Experimental: Samples are injected for 2 min and allowed to dissociate up to 20 min at a flow rate of 45 μI/min. In between sample injections, the chip surface is regenerated with 100 mM HCl. HBS-EP+(Hepes buffer pH7.4+EDTA) is used as running buffer. Binding curves are fitted using a Two State Reaction model by Biacore T100 Evaluation Software v2.0.1.
^{(a)}Heterogeneous binding curve resulting in no 1:1 fit, curves are fitted using a Two State Reaction model by Biacore T100 Evaluation Software v2.0.1

[3] = molecular target: T2, recombinant human VEGF165; assay: hVEGF165/hVEGFR1-Fc competition AlphaScreen
Experimental: Finally, streptavidin donor beads (20 μg/ml) are added and after 1 hour of incubation in the dark, fluorescence is measured on the Envision microplate reader.
Target sequence in this assay (P15692 other isoform, or with tags, fused parts or gaps limits assumed): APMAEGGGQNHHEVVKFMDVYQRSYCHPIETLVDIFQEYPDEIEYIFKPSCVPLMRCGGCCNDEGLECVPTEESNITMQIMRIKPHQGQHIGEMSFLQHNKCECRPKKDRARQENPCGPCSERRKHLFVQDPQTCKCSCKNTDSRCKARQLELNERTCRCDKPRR

[4] = molecular target: T2, recombinant human VEGF165; assay: hVEGF165/hVEGFR1-Fc competition ELISA
Target sequence in this assay (P15692 other isoform, or with tags, fused parts or gaps limits assumed): as above

[5] = molecular target: T2, recombinant human VEGF165; assay: AlphaScreen competition, 0.05 nM hVEGF165 and 0.05 nM hVEGFR2-Fc; blocked: hVEGFR2-Fc
Target sequence in this assay (P15692 other isoform, or with tags, fused parts or gaps limits assumed): as above

[6] = molecular target: T2, recombinant human VEGF165; assay: competition AlphaScreen, blocking of hVEGF165 binding to hVEGFR2-Fc
Target sequence in this assay (P15692 other isoform, or with tags, fused parts or gaps limits assumed): as above

[7] = molecular target: T2, recombinant human VEGF165; assay: AlphaScreen competition, 0.05 nM hVEGF165 and 0.05 nM hVEGFR1-Fc; blocked: hVEGFR1-Fc
[8] = molecular target: T2, recombinant human VEGF165; assay: as above; remark: listed apart in the source
Target sequence in this assay (P15692 other isoform, or with tags, fused parts or gaps limits assumed): as above

[9] = molecular target: T2, recombinant human VEGF165; assay: AlphaScreen competition, 0.05 nM hVEGF165 and 0.05 nM hVEGFR2-Fc; blocked: hVEGFR2-Fc; remark: listed apart in the source
[10] = molecular target: T2, recombinant human VEGF165; assay: kd1; SPR Biacore T100 on hVEGF165
Target sequence in this assay (P15692 other isoform, or with tags, fused parts or gaps limits assumed): as above

[11] = molecular target: T2, recombinant human VEGF165; assay: AlphaScreen competition, 0.05 nM hVEGF165 and 0.05 nM hVEGFR1-Fc; blocked: hVEGFR1-Fc; remark: listed apart in the source

Binder | binding result [1] | koff [2] [s⁻¹] | % inhibition [3] [%] | IC50 [3] [nM] | % inhibition [4] [%] | IC50 [4] [nM] | IC50 (read off the curve) [5] [nM] | IC50 (read off the curve) [6] [nM] | IC50 (read off the curve) [7] [nM] | IC50 (read off the curve) [8] [nM] | IC50 (read off the curve) [9] [nM] | koff [10] [s⁻¹] | IC50 (read off the curve) [11] [nM]
B1 | no binding (tested: 500 nM-32 pM) | 0.0086 | 41 | 0.9 | 64 | 0.5 | – | – | – | – | – | – | –
B2 | – | – | – | – | – | – | ~0.4 | ~0.4 | ~0.8 | ~0.5 | ~0.5 | 0.013 | ~0.5

From patent publication US20170247475A1 (Boehringer Ingelheim, published 2017)
